Six molecules from patent publication US20240376185A1 (SMIVET B V, published 2024) can be followed below.

Numbering of substitutions follows the chain as printed. In names and notes the source's numbering stands. Bounds are passed on as bounds.

The target in assay [1] is T1, tetanus neurotoxin (TeNT), authentic tetanus holotoxin (Clostridium tetani, UniProt P04958 2-1315).
The target of assay [2] is T1, tetanus neurotoxin (TeNT), authentic …. Briefly: cell-based or functional assay.
For assay [3], the target named is Tetanus neurotoxin (TeNT), authentic tetanus holotoxin (Clostridium tetani, UniProt P04958 2-1315).
Assay [4] concerns the target tetanus neurotoxin (TeNT), authentic tetanus holotoxin (Clostridium tetani, UniProt P04958 2-1315). The source holds these as a separate data set.

B1: SVT06-GS3-SVT16-L123Q-GS2-SVA12M2-H6 (bispecific antibody)
chain: QVQLQESGGGSVQAGGSLRLSCTASELSYDDYTIAWFRRAAGEGRVEDGEGVASITKSYDRAYDNKINYGHSVKGRFTISRDNAKNTVYLQMTDLLPSDTAVYYCALDITPPGGVGASLTEGFLFDYWGQGTQVTVSSGGGGSGGGGSGGGGSQVQLQESGGGSVQAGDSLRLSCAASGRTISNYAMGWFRQAPGKQREFVAAISRSDNTYYTDSVKGRFTISRDNAKNTLYLQMNSLKPEETAVYYCAADPNLMYESKWKYRALEAWGQGTQVTVSSGGGGSGGGSEVQLVESGGGLVQAGGSLRLSCAASGRTFSYYPMAWFRQAPGQEREFVAAIIGADTTYYADSLKGRFTISRDNAKNMVYLQMNSLKPEDTAVYYCAARNTYWSDVYYREGQYTNWGQGTQVTVSSHHHHHH
What is called Kd is the constant that tells how readily two partners part at equilibrium. A higher Kd goes with weaker binding. One may read the koff as the first-order rate constant of dissociation. A low value points to slow dissociation. Broadly, the kon is a measure of how fast the partners come together. Higher therefore signals fast association. Take B1: in assay [1], binding was characterised by a dissociation constant (Kd) of 0.0133 nM, the koff was determined as 1.32e-05 s⁻¹ and the kon was found to be 989000 M⁻¹ s⁻¹. In assay [2], the Endpoint dilution factor is > 32, the “Potency IU/mg” value is > 93.1 IU/mg and the “SDA concentration providing full protection” value stood at 3.1 nM.

B2: SVT06-SVT16-L123Q-GS2-SVG13M4-H6 (bispecific antibody)
chain: QVQLQESGGGSVQAGGSLRLSCTASELSYDDYTIAWFRRAAGEGRVEDGEGVASITKSYDRAYDNKINYGHSVKGRFTISRDNAKNTVYLQMTDLLPSDTAVYYCALDITPPGGVGASLTEGFLFDYWGQGTQVTVSSQVQLQESGGGSVQAGDSLRLSCAASGRTISNYAMGWFRQAPGKQREFVAAISRSDNTYYTDSVKGRFTISRDNAKNTLYLQMNSLKPEETAVYYCAADPNLMYESKWKYRALEAWGQGTQVTVSSGGGGSGGGSEVQLVESGGGLVQPGGSLRLSCEASGFTFDDYGMSWVRQAPGKGLEWVSSLTPNGGSTYYADSVKGRFTISRDNAKNTLYLQMNSLKPEDTALYYCAKNSYYGAMDYWGQGTQVTVSSHHHHHH
In assay [3], B2 had a Kd of 0.0159 nM, a koff of 6.61e-06 s⁻¹ and a kon of 417000 M⁻¹ s⁻¹.

B3: SVT20L-L123Q (VHH)
VHH: QVQLQQSGGGLVQAGGSLRLSCAASGRTMSSYAMGWFRQAPGKQREFVAAISRSGGNTYYTDSVKGRFTISRDNAKNTLYLQMNSLKPEETAVYYCAADPNLMYESKWKYRALEAWGQGTQVTVSS
What is called IC50 is the concentration that gives 50% inhibition. Low values mean greater potency in that assay, high ones weaker potency in that assay. B3 gave an IC50 in assay [4] of 0.038 µg/mL.

B4: SVT34L-L123Q (VHH)
VHH: B3 VHH with Q6E, A14P, M29I, T69I, S85N
B4 showed an IC50 in assay [4] of 0.034 µg/mL. This IC50 and that of the molecule before are within 1.5-fold of each other.

B5: SVT16-L123Q-GS2-SVA12M2-H6 (bispecific antibody)
chain: QVQLQESGGGSVQAGDSLRLSCAASGRTISNYAMGWFRQAPGKQREFVAAISRSDNTYYTDSVKGRFTISRDNAKNTLYLQMNSLKPEETAVYYCAADPNLMYESKWKYRALEAWGQGTQVTVSSGGGGSGGGSEVQLVESGGGLVQAGGSLRLSCAASGRTFSYYPMAWFRQAPGQEREFVAAIIGADTTYYADSLKGRFTISRDNAKNMVYLQMNSLKPEDTAVYYCAARNTYWSDVYYREGQYTNWGQGTQVTVSSHHHHHH
In assay [1], B5 had a Kd of 0.224 nM, a koff of 0.000199 s⁻¹ and a kon of 886000 M⁻¹ s⁻¹.

B6: SVT16-L123Q-GS2-SVG13M4-H6 (bispecific antibody)
chain: QVQLQESGGGSVQAGDSLRLSCAASGRTISNYAMGWFRQAPGKQREFVAAISRSDNTYYTDSVKGRFTISRDNAKNTLYLQMNSLKPEETAVYYCAADPNLMYESKWKYRALEAWGQGTQVTVSSGGGGSGGGSEVQLVESGGGLVQPGGSLRLSCEASGFTFDDYGMSWVRQAPGKGLEWVSSLTPNGGSTYYADSVKGRFTISRDNAKNTLYLQMNSLKPEDTALYYCAKNSYYGAMDYWGQGTQVTVSSHHHHHH
In assay [1], B6 showed a Kd of 0.227 nM, a koff of 0.000184 s⁻¹ and a kon of 665000 M⁻¹ s⁻¹. In assay [2], the Endpoint dilution factor was < 1 and the “SDA concentration providing full protection” value was > 1000 nM.
